Measured values published in article PMC6939650 (Molecules and Cells, 2019).

Biological target: the molecule itself
Test: SEC-MALS

B1: MexT regulatory domain (domain or fragment, Pseudomonas aeruginosa, UniProt Q9I0Z0 95-304, looked up)
chain: PATSTAVFRIGLSDDVEFGLLPPLLRRLRAEAPGIVLVVRRANYLLMPNLLASGEISVGVSYTDELPANAKRKTVRRSKPKILRADSAPGQLTLDDYCARPHALVSFAGDLSGFVDEELEKFGRKRKVVLAVPQFNGLGTLLAGTDIIATVPDYAAQALIAAGGLRAEDPPFETRAFELSMAWRGAQDNDPAERWLRSRISMFIGDPDSL
stoichiometry N: 2
